Assay results published in PMC6336354, “A transient helix in the disordered region of dynein light intermediate chain links the motor to structurally diverse adaptors for cargo transport” (PLoS Biology, 2019).

T1: NIN(1–693)::Strep-tag II (human, UniProt Q8N4C6 1-693)
T1 construct: human ninein (NIN), N-terminal fragment, residues 1-693 of 2,090; also called ninein; source: E. coli Rosetta, purified (Ni-NTA, TEV cleavage, Strep-Tactin; dialysis or SEC); not shown: 6xHis::MBP, N-terminal, cleaved; Strep-tag II (after linker GSGSGR), C-terminal, kept
T1 sequence (looked up): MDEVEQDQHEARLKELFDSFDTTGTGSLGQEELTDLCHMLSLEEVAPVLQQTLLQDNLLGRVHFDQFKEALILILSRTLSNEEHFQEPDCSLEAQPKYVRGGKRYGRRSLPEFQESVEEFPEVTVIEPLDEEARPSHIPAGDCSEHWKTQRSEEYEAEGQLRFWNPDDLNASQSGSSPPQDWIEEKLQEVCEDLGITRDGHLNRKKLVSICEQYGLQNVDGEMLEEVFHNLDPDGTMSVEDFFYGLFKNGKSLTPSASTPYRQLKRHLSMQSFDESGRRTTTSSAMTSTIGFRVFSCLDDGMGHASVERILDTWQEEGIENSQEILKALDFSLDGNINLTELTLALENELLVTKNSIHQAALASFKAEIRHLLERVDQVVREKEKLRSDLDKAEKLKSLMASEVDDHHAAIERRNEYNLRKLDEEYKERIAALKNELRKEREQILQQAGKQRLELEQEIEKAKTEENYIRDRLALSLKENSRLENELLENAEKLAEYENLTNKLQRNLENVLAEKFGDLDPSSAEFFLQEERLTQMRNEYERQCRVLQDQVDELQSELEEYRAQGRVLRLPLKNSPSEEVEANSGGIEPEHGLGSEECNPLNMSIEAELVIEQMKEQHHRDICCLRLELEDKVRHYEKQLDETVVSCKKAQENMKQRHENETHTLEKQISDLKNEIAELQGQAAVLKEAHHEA

T2: RILP(1–401)::Strep-tag II (human, UniProt Q96NA2 1-401)
T2 construct: also called RILP::Strep-tag II; source: Sf21 insect cells (baculovirus), purified (Strep-Tactin Sepharose); not shown: Strep-tag II (after linker GSGSGR), C-terminal, kept
T2 sequence (looked up): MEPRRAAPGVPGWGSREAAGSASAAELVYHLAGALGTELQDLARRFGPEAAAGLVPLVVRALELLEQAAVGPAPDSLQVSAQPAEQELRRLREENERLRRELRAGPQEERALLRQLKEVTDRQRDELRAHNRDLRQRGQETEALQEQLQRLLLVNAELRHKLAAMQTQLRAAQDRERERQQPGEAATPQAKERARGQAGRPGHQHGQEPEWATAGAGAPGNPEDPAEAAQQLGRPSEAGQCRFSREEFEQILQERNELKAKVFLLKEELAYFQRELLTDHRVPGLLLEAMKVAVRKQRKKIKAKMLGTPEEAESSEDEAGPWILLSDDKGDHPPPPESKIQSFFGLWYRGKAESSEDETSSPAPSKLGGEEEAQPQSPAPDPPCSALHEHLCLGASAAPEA


Legend:
[1] = target: T1, NIN(1–693)::Strep-tag II; assay: pull-down; GST::LIC::6xHis (50 pmol) with 50 or 250 pmol adaptor and glutathione agarose, 1 h at 4°C, 150 μL of 50 mM HEPES, 100 mM NaCl, 5 mM DTT, pH 7.5, 0.1% Tween 20; Coomassie staining and immunoblot against Strep-tag II; conditions: both partners purified
[2] = target: T2, RILP(1–401)::Strep-tag II; assay: as above; conditions: both partners purified

Binder | binding result [1] | binding result [2]
GST::LIC1(414–471)::6xHis (domain or fragment, human, single N-terminal tryptophan added in the construct; human dynein light intermediate chain 1 (DYNC1LI1), residues 414-471; source: E. coli BL21, purified (glutathione agarose, Ni-NTA; dialysis or SEC); not shown: GST, N-terminal, kept; 6xHis (after linker GSGSG), C-terminal, kept) WSSNVASVSPIPAGSKKIDPNMKAGATSEGVLANFFNSLLSKKTGSPGGPGVSGGSPAG | binds | binds
GST::LIC2(375–450)::6xHis (domain or fragment, human, single N-terminal tryptophan added in the construct; source: E. coli BL21, purified (glutathione agarose, Ni-NTA; dialysis or SEC); not shown: GST, N-terminal, kept; 6xHis (after linker GSGSG), C-terminal, kept) WATPTRASESPARGPSGSPRTQGRGGPASVPSSSPGTSVKKPDPNIKNNAASEGVLASFFNSLLSKKTGSPGSPGAG | binds | binds

Results, then the binder that gave them:

binding result [1] | binding result [2] | Binder
binds | binds | GST::LIC1(402–471)::6xHis (domain or fragment, human, single N-terminal tryptophan added in the construct; human dynein light intermediate chain 1 (DYNC1LI1), residues 402-471; source: E. coli BL21, purified (glutathione agarose, Ni-NTA; dialysis or SEC); not shown: GST, N-terminal, kept; 6xHis (after linker GSGSG), C-terminal, kept) WPGGSPRTPNRSVSSNVASVSPIPAGSKKIDPNMKAGATSEGVLANFFNSLLSKKTGSPGGPGVSGGSPAG
binds | binds | GST::LIC2(375–492)::6xHis (domain or fragment, human, single N-terminal tryptophan added in the construct; also called LIC2-C; source: E. coli BL21, purified (glutathione agarose, Ni-NTA; dialysis or SEC); not shown: GST, N-terminal, kept; 6xHis (after linker GSGSG), C-terminal, kept) WATPTRASESPARGPSGSPRTQGRGGPASVPSSSPGTSVKKPDPNIKNNAASEGVLASFFNSLLSKKTGSPGSPGAGGVQSTAKKSGQKTVLSNVQEELDRMTRKPDSMVTNSSTENEA
